Patent US20180273970A1, “PLASMID, TRANSFORMED PLANT CELL AND TRANSGENIC PLANT COMPRISING THE SAME, AND METHODS FOR PREPARING A TRANSGENIC PLANT AND FOR INCREASING YIELD OF A PLANT UNDER ABIOTIC STRESSES” (Academia Sinica, priority 2014, published 2018)

Experiments:
SKIN1 = experiment: Quantitative RT-PCR of SKIN1 mRNA in leaves of 2-week-old rice seedlings after stress or ABA; format: in vivo; details: 6 h after salt stress (200 mM NaCl)
Experimental: FIG. 9. The expression of SKIN is induced by various abiotic stresses and ABA, and SKINs promote the ABA sensitivity. (A) Total RNA was purified from leaves of 2-week-old rice seedlings that had been air dried, treated with 200 mM salt, incubated at 4° C., or treated with 1 μM ABA, or from embryos of seedlings grown underwater (hypoxia), for various lengths of time. RNAs were subjected to quantitative RT-PCR analysis using primers specific for SKIN1 and SKIN2. The highest mRNA level was set as 100%. The lowest mRNA level was assigned a value of 1× and mRNA levels of other samples were calculated relative to this value. Error bars indicate the SE for three replicate experiments. (B) Seeds of transgenic lines SKIN1-Ox(O3), SKIN1-Ri(R3), SKIN2-Ox(02) and SKIN2-Ri(R1) were germinated and grown in water containing various concentrations of ABA at 28° C. under a 14-h light/10-h dark cycle for 6 days. Lengths of shoots were measured. Error bars represent SE (n=8) at significance levels: * p<0.1, ** p<0.05. […]
Total RNA was extracted from leaves of rice seedlings with the Trizol reagent (Invitrogen) and treated with RNase-free DNase I (Promega, Madison, Wis.). […] The quantitative variation between different samples was evaluated by the delta-delta CT method, and the amplification of 18S ribosomal RNA was used as an internal control to normalize all data.

αAmy3 SRC promoter [1] = experiment: Rice embryo transient expression assay, SRC-35Smp:Luc reporter (luciferase); format: cell-based; details: 24 h; for Antagonism of SnRK1A function on αAmy3 SRC promoter: co-transfected with Ubi:SnRK1A, +S or −S
Experimental: FIG. 3. The highly conserved GKSKSF domain (KSD) is essential for SKINs to antagonize the function of SnRK1A. Rice embryos were transfected with plasmids, incubated in medium with 100 mM glucose (+S) or without glucose (−S) for 24 h, and assayed for luciferase activity. The luciferase activity in rice embryos bombarded with the SRC-35S mp-Luc construct only and in +S medium was set to 1×, and other values were calculated relative to this value. Error bars indicate the SE for three replicate experiments. (A) Plasmid constructs. (B) Rice embryos were co-transfected with effector Ubi:SnRK1A, Ubi:SKIN1 or Ubi:SKIN(Ri) alone and reporter SRC-35Smp:Luc, or co-transfected with effectors Ubi:SnRK1A and Ubi:SKIN or Ubi:SKIN(Ri) and reporter SRC-35Smp:Luc. (C) Total cellular proteins were extracted from rice embryos transfected with Ubi:SnRK1A, Ubi:SKIN or Ubi:SnRK1A and Ubi:SKIN by particle bombardment and subjected to Western blot analysis using antibodies against SnRK1A and the HA tag fused to at the N-terminus of SKINs. (D) Rice embryos were co-transfected with effectors Ubi:SnRK1A and Ubi:SKIN1 (wild-type or truncated) and reporter SRC-35Smp:Luc. (E) Rice embryos were co-transfected with effectors Ubi:SnRK1A and Ubi:SKIN (wild-type, KSD deleted, or KSD replaced with 6 Ala) and reporter SRC-35Smp:Luc.
(§1) FIG. 21. ABA and sorbitol suppress the function of SnRK1A in activation of αAmy3 SRC promoter. Rice embryos and barley aleurones were transfected with reporter SRC-35Smp:Luc with or without effectors, incubated with or without ABA for 24 h, and assayed for luciferase activity. The luciferase activity in embryos or aleurones bombarded with the SRC-35S mp-Luc construct only and in +S medium was set to 1×, and other values were calculated relative to this value. Error bars indicate the SE for three replicate experiments. (A) Plasmid constructs. (B) Barley aleurones were transfected with effector Ubi:SnRK1A, Ubi:SKIN1 or Ubi:SKIN(Ri) alone and reporter SRC-35Smp:Luc, or co-transfected with effectors Ubi:SnRK1A and Ubi:SKIN or Ubi:SKIN(Ri) and reporter SRC-35Smp:Luc. (C) Rice embryos (upper panel) were transfected with or without Ubi:SnRK1A and incubated with or without 1 μM ABA or 50 mM sorbitol, and barley aleurones (lower panel) were transfected with or without Ubi:SnRK1A and incubated with 5 μM ABA or 400 mM sorbitol.
Rice embryos were prepared for particle bombardment as described (Chen et al., 2006). The rice embryos were bombarded with reporter, effectors and internal control at a ratio of 4:2:1 for single effector or 4:2:2:1 for two effectors. The internal control (Ubi::GUS) was used to normalize the reporter enzyme activity because different transformation efficiency might occur in each independent experiment. Bombarded rice embryos were divided into two halves, with half being incubated in MS liquid medium containing 100 mM Glc, and the other half grown in MS liquid containing 100 mM mannitol, for 24 h. Total proteins were extracted for embryos with a cell lysis buffer [0.1 M K-phosphate, pH 7.8, 1 mM EDTA, 10% glycerol, 1% triton X-100, and 7 mM β-mercaptoethanol]. GUS assay buffer [0.1 M Na-phosphate, 20 mM EDTA, 0.2% sarcosine, 0.2% Triton X-100, and 20 mM β-mercaptoethanol] was used for GUS activity assay. The activity assay of GUS and luciferase were described elsewhere (Lu et al., 1998). All bombardments were repeated at least three times.

αAmy3 SRC promoter [2] = experiment: Barley aleurone transient expression assay, SRC-35Smp:Luc reporter (luciferase); format: cell-based; details: barley aleurones, 5 μM ABA or 400 mM sorbitol, 24 h
Experimental: as §1
The barley aleurone/endosperm transient expression assays were performed as described (Hong et al., 2012). Each independent experiment consisted of three replicates, with six endosperms for each treatment, and was repeated three times with similar results. Luciferase and GUS activity assays were performed as described (Hong et al., 2012). […]

[3] = biological target: T1, GAD-SnRK1A (full-length SnRK1A 1-505 fused to the Gal4 activation domain) (rice, UniProt Q852Q2 1-505); experiment: yeast two-hybrid, GBD-SKIN1 truncation with GAD-SnRK1A
T1 construct: range 1-505
T1 sequence (looked up): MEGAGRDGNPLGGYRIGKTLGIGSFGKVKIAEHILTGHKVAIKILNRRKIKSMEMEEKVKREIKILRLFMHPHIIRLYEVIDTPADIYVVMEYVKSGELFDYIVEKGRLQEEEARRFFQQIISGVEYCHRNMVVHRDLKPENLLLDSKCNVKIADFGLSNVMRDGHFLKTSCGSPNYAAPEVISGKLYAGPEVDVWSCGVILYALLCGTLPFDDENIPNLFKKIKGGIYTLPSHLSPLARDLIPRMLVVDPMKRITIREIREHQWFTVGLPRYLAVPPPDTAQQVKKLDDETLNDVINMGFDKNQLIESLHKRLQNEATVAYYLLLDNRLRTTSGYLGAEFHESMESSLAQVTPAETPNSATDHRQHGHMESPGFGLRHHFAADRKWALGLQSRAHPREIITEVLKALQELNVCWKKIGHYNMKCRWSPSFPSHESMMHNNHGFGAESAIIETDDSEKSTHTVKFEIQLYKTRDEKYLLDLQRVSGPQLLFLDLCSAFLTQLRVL
Text: FIG. 14. The N-terminal amino acids 1-83 of SKIN1 interact with the kinase and autoinhibitory domains of SnRK1A in yeast. (A) Plasmid constructs ADH1:GAD-SnRK1A and ADH1:GBD-SKIN1 (wild type or deletion at N- or C-terminus) were used as effectors, and Mel1:LacZ, Mel1:Mel1 and Gal1:HIS3 were used as reporters. (B) The N-terminus of SKIN1 interacts with SnRK1A in the yeast two-hybrid assays. (C) The kinase domain (KD) and auto-inhibitory domain (AID) of SnRK1A interact with SKIN1 and SKIN2. Yeast strain AH109 containing GAD-SnRK1A or GAD alone (-) was mated with yeast strain Y187 containing various GBD-SKIN1 constructs or GBD alone (-). The interaction between p53 and large T-antigen (T-Ag) was used as a positive control.

[Cl-].[Na+] [salt, NaCl]
Induction of SKIN1 mRNA accumulation (SKIN1): ≤ 2.3 fold

OC[C@@H](O)[C@@H](O)[C@H](O)[C@@H](O)CO [sorbitol]
Effect on αAmy3 SRC promoter (luciferase activity), alone and SnRK1A-activated (αAmy3 SRC promoter [1]; rice embryos, 1 μM ABA or 50 mM sorbitol): suppressed | Effect on αAmy3 SRC promoter (luciferase activity), alone and SnRK1A-activated (αAmy3 SRC promoter [2]): suppressed

B1: SnRK1A: rice Snf1-related protein kinase 1A, overexpressed from Ubi:SnRK1A effector (protein)
chain: MEGAGRDGNPLGGYRIGKTLGIGSFGKVKIAEHILTGHKVAIKILNRRKIKSMEMEEKVKREIKILRLFMHPHIIRLYEVIDTPADIYVVMEYVKSGELFDYIVEKGRLQEEEARRFFQQIISGVEYCHRNMVVHRDLKPENLLLDSKCNVKIADFGLSNVMRDGHFLKTSCGSPNYAAPEVISGKLYAGPEVDVWSCGVILYALLCGTLPFDDENIPNLFKKIKGGIYTLPSHLSPLARDLIPRMLVVDPMKRITIREIREHQWFTVGLPRYLAVPPPDTAQQVKKLDDETLNDVINMGFDKNQLIESLHKRLQNEATVAYYLLLDNRLRTTSGYLGAEFHESMESSLAQVTPAETPNSATDHRQHGHMESPGFGLRHHFAADRKWALGLQSRAHPREIITEVLKALQELNVCWKKIGHYNMKCRWSPSFPSHESMMHNNHGFGAESAIIETDDSEKSTHTVKFEIQLYKTRDEKYLLDLQRVSGPQLLFLDLCSAFLTQLRVL
modifications: left off: large carriers
αAmy3 SRC promoter activity on overexpression of the effector (αAmy3 SRC promoter [1]; 100 mM glucose (+S) or without glucose (−S)): enhanced

B2: SKIN1(1-83): truncated SKIN1 containing amino acids 1-83 (protein)
chain: MKLLSSIEQACDICRLKKLKCSKEKPKCAKCLKNNWECRYSPKTKRSPLTRAHLTEVESRLERLEQLFLLIFPREDLDMILKMDSLQDIKALLTGLFVQDNVNKDAVTDRLASVETDMPLTLRQHRISATSSSEESSNKGQRQLTVSMSTAVADVPPAAAYGFPGSAKRGKPEEVVVLMGKRRNEGFFIEEEEEEEEVLTESSSIGAPSPASSSIGENSGEEEGGDDEEE
Antagonism of SnRK1A function on αAmy3 SRC promoter (αAmy3 SRC promoter [1]): did not antagonize

B3: GBD-SKIN1 84-159 (other)
chain: MKLLSSIEQACDICRLKKLKCSKEKPKCAKCLKNNWECRYSPKTKRSPLTRAHLTEVESRLERLEQLFLLIFPREDLDMILKMDSLQDIKALLTGLFVQDNVNKDAVTDRLASVETDMPLTLRQHRISATSSSEESSNKGQRQLTVSVESKLKAEDEQVGLGCLDALEESLPIKRGLSNFYAGKSKSFTSLAEATASPAAAANELAKPENPFNKRRRILATWS
binding result [3]: no binding

B4: GBD-SKIN1 160-259 (other)
chain: MKLLSSIEQACDICRLKKLKCSKEKPKCAKCLKNNWECRYSPKTKRSPLTRAHLTEVESRLERLEQLFLLIFPREDLDMILKMDSLQDIKALLTGLFVQDNVNKDAVTDRLASVETDMPLTLRQHRISATSSSEESSNKGQRQLTVSRRASCSSLATATYLPPLLAPDHAVAEGDEGEEEDDDSDDDERQHRGKNGGRRESAAPPLPLPPPRLTLHTQMGGMVRRNGTFRSPRSLSLSDLQNSGGSC
Antagonism of SnRK1A function on αAmy3 SRC promoter (αAmy3 SRC promoter [1]): did not antagonize | binding result [3]: no binding

B5: GBD-SKIN1 84-259 (other)
chain: MKLLSSIEQACDICRLKKLKCSKEKPKCAKCLKNNWECRYSPKTKRSPLTRAHLTEVESRLERLEQLFLLIFPREDLDMILKMDSLQDIKALLTGLFVQDNVNKDAVTDRLASVETDMPLTLRQHRISATSSSEESSNKGQRQLTVSVESKLKAEDEQVGLGCLDALEESLPIKRGLSNFYAGKSKSFTSLAEATASPAAAANELAKPENPFNKRRRILATWSRRASCSSLATATYLPPLLAPDHAVAEGDEGEEEDDDSDDDERQHRGKNGGRRESAAPPLPLPPPRLTLHTQMGGMVRRNGTFRSPRSLSLSDLQNSGGSC
binding result [3]: no binding
